Target: MET on NCI-H596 cells (MET exon14 skip mutation) (human) (UniProt P08581)
Assay: cell-based or functional assay

“hepatocyte growth factor (HGF) (from UniProt P14210 32-728) (ligand)” gave a Relative Cell Growth (n = 3), NCI-H596 in soft agar, 100 ng/mL, two weeks (relative to control (no treatment)) of 7.88.

— US20240084041A1
